The experiment deals with T1, hu-MPL (human, UniProt P40238).
T1 chain: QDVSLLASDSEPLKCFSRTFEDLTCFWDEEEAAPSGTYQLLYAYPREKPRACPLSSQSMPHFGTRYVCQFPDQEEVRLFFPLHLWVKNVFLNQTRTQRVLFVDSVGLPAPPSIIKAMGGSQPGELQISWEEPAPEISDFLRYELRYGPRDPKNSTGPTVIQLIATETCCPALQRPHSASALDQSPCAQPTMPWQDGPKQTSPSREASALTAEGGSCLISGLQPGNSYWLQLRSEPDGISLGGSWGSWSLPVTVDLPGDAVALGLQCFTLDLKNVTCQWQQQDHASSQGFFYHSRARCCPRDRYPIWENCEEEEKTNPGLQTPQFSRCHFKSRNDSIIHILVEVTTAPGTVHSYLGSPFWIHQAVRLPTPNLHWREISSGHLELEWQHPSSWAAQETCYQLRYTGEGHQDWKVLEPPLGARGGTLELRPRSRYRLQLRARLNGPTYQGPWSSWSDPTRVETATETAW
Nature of the experiment: SPR.

YCDEGPTLKQWLVCLGLQ [TMP20] registered a Kd of 560 pM.

Broadly, the Kd is the concentration at which binding is half-saturated. A lower Kd goes with a tighter complex.

For the origin of these results see US20090011497 (published 2009).
